These results are taken from US20250313864, “TYPE V CAS PROTEINS AND APPLICATIONS THEREOF” (Alia Therapeutics Srl, published 2025).

Holding throughout (assay): cell_activity; PAM TTTA; U2OS; with at least one of g1/g2, which one not given
Common to all, as to details: tags: V5 tag, C-terminal NLS; hairpin

One data set addresses T1, ZZGY Type V-A Cas (unidentified).
T1 chain: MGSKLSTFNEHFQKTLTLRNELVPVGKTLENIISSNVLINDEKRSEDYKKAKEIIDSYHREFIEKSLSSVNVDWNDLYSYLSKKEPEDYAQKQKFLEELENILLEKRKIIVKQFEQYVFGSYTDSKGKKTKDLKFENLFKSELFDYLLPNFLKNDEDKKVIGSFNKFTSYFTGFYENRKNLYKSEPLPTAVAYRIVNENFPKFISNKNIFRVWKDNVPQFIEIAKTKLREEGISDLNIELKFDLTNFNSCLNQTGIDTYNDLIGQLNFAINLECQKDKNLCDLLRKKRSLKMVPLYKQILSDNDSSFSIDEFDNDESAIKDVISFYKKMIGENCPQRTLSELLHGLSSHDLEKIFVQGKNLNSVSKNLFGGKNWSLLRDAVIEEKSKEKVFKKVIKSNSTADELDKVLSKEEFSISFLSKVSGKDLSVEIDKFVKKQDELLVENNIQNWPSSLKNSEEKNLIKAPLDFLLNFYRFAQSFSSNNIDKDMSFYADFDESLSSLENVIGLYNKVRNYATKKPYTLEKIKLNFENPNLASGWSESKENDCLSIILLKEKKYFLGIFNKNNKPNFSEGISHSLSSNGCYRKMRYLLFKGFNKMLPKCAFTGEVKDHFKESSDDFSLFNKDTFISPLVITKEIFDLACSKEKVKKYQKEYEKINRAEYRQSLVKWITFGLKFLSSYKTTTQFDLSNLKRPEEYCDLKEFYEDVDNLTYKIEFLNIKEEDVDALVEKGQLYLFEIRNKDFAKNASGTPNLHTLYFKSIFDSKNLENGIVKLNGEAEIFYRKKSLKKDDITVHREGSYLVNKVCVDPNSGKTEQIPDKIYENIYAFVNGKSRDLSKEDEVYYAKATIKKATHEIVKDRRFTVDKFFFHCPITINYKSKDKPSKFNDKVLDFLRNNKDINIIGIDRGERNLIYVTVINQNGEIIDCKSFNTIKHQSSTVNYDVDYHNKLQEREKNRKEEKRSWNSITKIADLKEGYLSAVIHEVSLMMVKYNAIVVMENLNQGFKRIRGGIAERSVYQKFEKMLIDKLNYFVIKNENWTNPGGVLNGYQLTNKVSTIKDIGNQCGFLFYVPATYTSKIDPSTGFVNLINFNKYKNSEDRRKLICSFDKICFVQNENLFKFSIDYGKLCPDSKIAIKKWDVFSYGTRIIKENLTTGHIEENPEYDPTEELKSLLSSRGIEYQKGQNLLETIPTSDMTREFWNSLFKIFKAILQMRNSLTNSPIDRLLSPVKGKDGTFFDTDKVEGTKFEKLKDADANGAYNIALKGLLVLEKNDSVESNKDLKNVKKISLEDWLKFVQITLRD

In a further data set the target is T2, ZJHK Type V-A Cas (unidentified).
T2 chain: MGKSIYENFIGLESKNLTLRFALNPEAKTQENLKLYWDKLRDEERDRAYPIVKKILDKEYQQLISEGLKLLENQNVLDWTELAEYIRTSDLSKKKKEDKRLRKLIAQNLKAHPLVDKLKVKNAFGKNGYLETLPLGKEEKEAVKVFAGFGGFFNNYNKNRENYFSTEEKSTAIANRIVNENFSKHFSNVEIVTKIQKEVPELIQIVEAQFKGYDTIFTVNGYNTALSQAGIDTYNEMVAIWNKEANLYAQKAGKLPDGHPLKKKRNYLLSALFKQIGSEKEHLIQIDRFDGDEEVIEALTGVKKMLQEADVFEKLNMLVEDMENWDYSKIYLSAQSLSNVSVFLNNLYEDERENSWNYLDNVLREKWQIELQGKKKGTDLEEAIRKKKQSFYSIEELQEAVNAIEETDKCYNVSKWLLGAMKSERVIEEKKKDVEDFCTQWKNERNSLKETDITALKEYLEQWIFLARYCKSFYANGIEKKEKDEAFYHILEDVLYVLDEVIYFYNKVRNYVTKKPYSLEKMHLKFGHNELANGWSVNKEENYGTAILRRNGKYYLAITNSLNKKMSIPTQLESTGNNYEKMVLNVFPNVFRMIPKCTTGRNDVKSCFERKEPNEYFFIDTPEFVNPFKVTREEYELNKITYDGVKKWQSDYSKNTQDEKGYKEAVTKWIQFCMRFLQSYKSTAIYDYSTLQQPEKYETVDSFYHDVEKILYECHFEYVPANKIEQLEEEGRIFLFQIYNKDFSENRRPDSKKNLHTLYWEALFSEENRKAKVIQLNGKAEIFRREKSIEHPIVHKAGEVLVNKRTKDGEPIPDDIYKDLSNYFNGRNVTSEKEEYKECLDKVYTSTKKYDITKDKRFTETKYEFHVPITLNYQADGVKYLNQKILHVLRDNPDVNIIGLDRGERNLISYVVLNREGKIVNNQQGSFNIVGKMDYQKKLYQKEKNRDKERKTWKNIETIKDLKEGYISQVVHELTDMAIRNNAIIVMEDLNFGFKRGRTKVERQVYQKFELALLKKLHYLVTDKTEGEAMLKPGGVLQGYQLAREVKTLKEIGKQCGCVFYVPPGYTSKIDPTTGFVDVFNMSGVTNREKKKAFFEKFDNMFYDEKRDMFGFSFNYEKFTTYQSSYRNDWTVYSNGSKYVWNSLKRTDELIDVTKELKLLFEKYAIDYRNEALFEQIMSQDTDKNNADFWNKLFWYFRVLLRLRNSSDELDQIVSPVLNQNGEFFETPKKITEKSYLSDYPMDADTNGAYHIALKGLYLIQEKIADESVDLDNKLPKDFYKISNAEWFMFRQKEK

The target of a further data set is T3, ZXPB Type V-A Cas (unidentified).
T3 chain: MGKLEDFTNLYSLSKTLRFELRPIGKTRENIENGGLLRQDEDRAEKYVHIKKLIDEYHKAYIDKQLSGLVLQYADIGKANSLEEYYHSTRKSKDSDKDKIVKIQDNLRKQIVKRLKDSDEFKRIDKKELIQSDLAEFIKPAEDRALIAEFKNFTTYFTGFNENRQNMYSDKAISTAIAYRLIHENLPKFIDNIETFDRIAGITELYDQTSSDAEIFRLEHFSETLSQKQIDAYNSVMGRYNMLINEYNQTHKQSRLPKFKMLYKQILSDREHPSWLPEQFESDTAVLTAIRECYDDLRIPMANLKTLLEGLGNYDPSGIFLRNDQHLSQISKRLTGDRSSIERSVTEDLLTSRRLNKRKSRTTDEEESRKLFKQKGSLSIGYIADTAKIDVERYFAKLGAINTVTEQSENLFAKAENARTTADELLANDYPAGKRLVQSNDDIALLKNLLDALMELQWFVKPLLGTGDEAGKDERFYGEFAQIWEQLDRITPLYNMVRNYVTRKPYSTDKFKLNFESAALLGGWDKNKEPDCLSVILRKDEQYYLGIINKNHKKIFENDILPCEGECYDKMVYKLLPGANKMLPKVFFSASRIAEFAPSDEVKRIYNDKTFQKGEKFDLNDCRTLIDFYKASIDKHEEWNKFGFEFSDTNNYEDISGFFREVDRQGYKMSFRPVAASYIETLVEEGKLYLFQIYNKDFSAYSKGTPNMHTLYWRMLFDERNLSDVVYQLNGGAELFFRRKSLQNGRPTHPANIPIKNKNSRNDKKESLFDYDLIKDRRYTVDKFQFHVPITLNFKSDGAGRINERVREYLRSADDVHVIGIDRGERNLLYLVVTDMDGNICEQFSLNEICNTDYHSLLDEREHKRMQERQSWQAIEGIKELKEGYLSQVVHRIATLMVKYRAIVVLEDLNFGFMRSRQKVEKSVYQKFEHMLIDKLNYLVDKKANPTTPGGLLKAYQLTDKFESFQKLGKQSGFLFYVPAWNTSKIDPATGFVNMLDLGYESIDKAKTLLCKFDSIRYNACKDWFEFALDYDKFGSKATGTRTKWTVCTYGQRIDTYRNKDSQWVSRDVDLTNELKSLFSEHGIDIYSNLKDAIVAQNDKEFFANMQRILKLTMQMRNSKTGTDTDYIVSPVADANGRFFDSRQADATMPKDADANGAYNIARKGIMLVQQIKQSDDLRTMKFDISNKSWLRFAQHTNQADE

B1: ZZGY crRNA EGFP-g1 ; EGFP-g1 target (ssRNA ; dsDNA)
RNA: UCUAAAGCUCUUUAAGAAUUUCUACUUUCGUAGAUCGUCGCCGUCCAGCUCGACCAGG
DNA 1: TTTACGTCGCCGTCCAGCTCGACCAGG
DNA 2: CCTGGTCGAGCTGGACGGCGACGTAAA
The molecule B1 had an activity with ZZGY Type V-A Cas above 20 % EGFP KO.

B2: ZJHK crRNA EGFP-g1 ; EGFP-g1 target (ssRNA ; dsDNA)
RNA: CUUUGAAAGAAUAUAAUUUCUACUGAAAGUGUAGAUCGUCGCCGUCCAGCUCGACCAGG
DNA 1: TTTACGTCGCCGTCCAGCTCGACCAGG
DNA 2: CCTGGTCGAGCTGGACGGCGACGTAAA
Consider B2, for which, in the data set with ZJHK Type V-A Cas, the activity is above 20 % EGFP KO.

B3: ZXPB crRNA EGFP-g1 ; EGFP-g1 target (ssRNA ; dsDNA)
RNA: GGCUAUAAAAGCCAUAUAAUUUCUACUAUUGUAGAUCGUCGCCGUCCAGCUCGACCAGG
DNA 1: TTTACGTCGCCGTCCAGCTCGACCAGG
DNA 2: CCTGGTCGAGCTGGACGGCGACGTAAA
In turn, B3 had an activity in the data set with ZXPB Type V-A Cas above 20 % EGFP KO.
